Laboratory results as given in patent US20240368223A1.
Bridges are numbered along the chain shown (N, C = ends). Primed or numbered codes have the meaning given here. The star is where a group is joined. Biotin = O=C1N[C@H]2[C@H](CS[C@H]2CCCCC(=O)*)N1; PEG4′ = amino-PEG4 spacer

What was measured:
[1] = target: human IgG (Chugai Pharmaceutical Co., Ltd.) (human); test: SPR, BIAcore T200, IgG immobilised; 1:1 binding fit
[2] = target: human IgG (Chugai Pharmaceutical Co., Ltd.) (human); test: SPR, BIAcore T200, IgG immobilised; equilibrium value

- Kd [1]: 9.1 nM
- Kd [2]: 10 nM
Binder: {Biotin-PEG4′}-GPDCAYHRGELVWCTFH-NH2 (disulfide 4-14) [Type I IgG-binding peptide …-NH2]
